The text below walks through data of article PMC10730160 (mAbs, 2023).

Assay [1] concerns the target mouse CTLA-4, on CHO-K1 cells (Mus musculus, UniProt P09793). Briefly: ELISA.
Assay [2] addresses CTLA-4 antigen (in solution, for HDX-MS and cross-linking) (human, UniProt P16410). Briefly: HDX-MS.
In assay [3] the target is human CTLA-4, wild type, on CHO-K1 cells (human, UniProt P16410). Briefly: flow cytometry on cells. On the technique in general: A flow cytometer gives signals particle by particle.
Sequence of human CTLA-4, wild type, on CHO-K1 cells (P16410 36-223): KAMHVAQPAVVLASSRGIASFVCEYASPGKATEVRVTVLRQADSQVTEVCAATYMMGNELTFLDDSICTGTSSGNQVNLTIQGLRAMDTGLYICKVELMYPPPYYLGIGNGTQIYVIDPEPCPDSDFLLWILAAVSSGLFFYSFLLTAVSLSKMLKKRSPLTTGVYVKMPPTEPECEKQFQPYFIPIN

Sequence of CTLA-4 antigen (in solution, for HDX-MS and cross-linking) (P16410 36-223): as above

B1: tremelimumab (antibody, V domains shown)
VH: QVQLVESGGGVVQPGRSLRLSCAASGFTFSSYGMHWVRQAPGKGLEWVAVIWYDGSNKYYADSVKGRFTISRDNSKNTLYLQMNSLRAEDTAVYYCARDPRGATLYYYYYGMDVWGQGTTVTVSS
VL: DIQMTQSPSSLSASVGDRVTITCRASQSINSYLDWYQQKPGKAPKLLIYAASSLQSGVPSRFSGSGSGTDFTLTISSLQPEDFATYYCQQYYSTPFTFGPGTKVEIK
For the molecule B1, the binding result in assay [1] is listed as “no binding”; in assay [2], “binds”; in assay [3], “binds”.
